Values joined by “and” are separate entries in the source; they are usually repeats but may differ in a detail not shown here. Equal entries are not always repeated. Blank lines part the entries; values can stand above or below the molecule they belong to.
Legend:
[1] = target: LRP6 P1E1P2E2 (Homo sapiens) (UniProt O75581); conditions: cited from earlier work
[2] = target: LRP6 P3E3P4E4 (Homo sapiens) (UniProt O75581); conditions: cited from earlier work
[3] = target: T1, human LRP6 β-propeller-EGF modules P3E3P4E4 (Homo sapiens); test: quartz crystal microbalance (QCM); LRP6 P3E3P4E4 immobilised by amine coupling on an Attana LNB chip; VHH injected at four rising concentrations (single cycle kinetics); 22 °C, HBS-T, 25 µL/min; 1:1 fitting model; conditions: both partners purified
T1 construct: Low-density lipoprotein receptor-related protein 6 (LRP6), human, domains P3E3P4E4; the methods say Uniprot residues 639-1244, the results say UNIPROT residues 629-1244; Expressed from pUPE107.03 with an N-terminal cystatin secretion signal; also called LRP6^P3E3P4E4; LRP6 P3E3P4E4; source: HEK293 GnTI- cells, transiently co-expressed with human MESD, secreted, purified (Ni-Sepharose excel, SEC …)
T1 chain: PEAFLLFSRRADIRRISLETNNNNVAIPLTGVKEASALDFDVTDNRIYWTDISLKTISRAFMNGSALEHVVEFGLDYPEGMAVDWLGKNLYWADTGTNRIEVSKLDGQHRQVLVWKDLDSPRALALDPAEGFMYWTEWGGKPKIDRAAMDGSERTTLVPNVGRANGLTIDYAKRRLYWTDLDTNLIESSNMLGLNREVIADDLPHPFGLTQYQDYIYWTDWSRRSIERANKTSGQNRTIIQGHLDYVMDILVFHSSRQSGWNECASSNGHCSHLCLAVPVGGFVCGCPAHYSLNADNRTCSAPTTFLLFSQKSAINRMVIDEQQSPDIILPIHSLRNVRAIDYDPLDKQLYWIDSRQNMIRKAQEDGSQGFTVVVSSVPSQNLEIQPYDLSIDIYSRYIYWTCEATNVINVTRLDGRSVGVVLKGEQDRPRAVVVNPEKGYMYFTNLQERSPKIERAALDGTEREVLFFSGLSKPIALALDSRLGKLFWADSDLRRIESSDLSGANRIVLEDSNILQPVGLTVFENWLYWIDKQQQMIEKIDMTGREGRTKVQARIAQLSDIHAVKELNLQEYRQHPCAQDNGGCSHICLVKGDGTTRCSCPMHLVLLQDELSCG

[4] = target: T2, human LRP6 β-propeller-EGF modules P3E3P4E4 (Homo sapiens); test: ITC; 10 µM LRP6^P3E3P4E4 in the cell, 100 µM VHH injected, DPBS, 25 °C, triplicate; conditions: both partners purified
T2 construct: low-density lipoprotein receptor-related protein 6 (LRP6), human, domains P3E3P4E4; methods: Uniprot residues 639-1244; results: residues UNIPROT 629-1244; Vector pUPE107.03 with an N-terminal cystatin secretion signal; A second construct with a C-terminal BAP-tag followed by His6 (biotinylated by Bir-A) was used for the CIS display selection and the ELISA screening only; also called …
T2 chain: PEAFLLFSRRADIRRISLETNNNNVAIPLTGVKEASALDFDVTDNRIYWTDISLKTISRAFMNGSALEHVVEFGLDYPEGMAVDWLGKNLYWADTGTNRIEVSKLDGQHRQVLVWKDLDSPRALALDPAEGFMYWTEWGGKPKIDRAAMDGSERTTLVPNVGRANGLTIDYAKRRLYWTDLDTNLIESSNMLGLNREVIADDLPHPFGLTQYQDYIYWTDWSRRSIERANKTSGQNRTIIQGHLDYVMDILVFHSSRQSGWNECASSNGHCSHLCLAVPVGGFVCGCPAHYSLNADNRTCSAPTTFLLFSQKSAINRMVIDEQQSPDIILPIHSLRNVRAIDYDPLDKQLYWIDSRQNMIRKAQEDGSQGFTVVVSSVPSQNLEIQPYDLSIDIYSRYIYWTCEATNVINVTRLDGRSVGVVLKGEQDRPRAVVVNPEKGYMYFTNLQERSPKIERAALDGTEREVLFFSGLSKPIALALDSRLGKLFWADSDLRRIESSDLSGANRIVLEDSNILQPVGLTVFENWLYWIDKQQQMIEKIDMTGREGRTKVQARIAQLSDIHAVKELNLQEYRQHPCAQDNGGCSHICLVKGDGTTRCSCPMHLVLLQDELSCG

[5] = target: T2, human LRP6 β-propeller-EGF modules …; test: quartz crystal microbalance (QCM); LRP6^P3E3P4E4 immobilised by amine coupling on an Attana LNB chip; VHHs injected (0.03-0.25 µg/mL) in HBS-T, single-cycle kinetics, 22 °C, 1:1 fitting model; conditions: both partners purified
[6] = target: T2, human LRP6 β-propeller-EGF modules …; test: cell-based or functional assay
[7] = target: T3, human LRP6 β-propeller-EGF modules P3E3P4E4 (Homo sapiens); test: ITC; 10 µM LRP6 P3E3P4E4 in the sample cell, 100 µM VHH injected, DPBS, 25 °C; triplicate; conditions: both partners purified
T3 construct: low-density lipoprotein receptor-related protein 6 (LRP6), human, domains P3E3P4E4; Cloned with an N-terminal cystatin secretion signal; also called LRP6^P3E3P4E4; LRP6 P3E3P4E4; source: HEK293 GnTI- cells, transiently co-expressed with human MESD, secreted, purified (Ni-Sepharose excel, SEC)
T3 chain: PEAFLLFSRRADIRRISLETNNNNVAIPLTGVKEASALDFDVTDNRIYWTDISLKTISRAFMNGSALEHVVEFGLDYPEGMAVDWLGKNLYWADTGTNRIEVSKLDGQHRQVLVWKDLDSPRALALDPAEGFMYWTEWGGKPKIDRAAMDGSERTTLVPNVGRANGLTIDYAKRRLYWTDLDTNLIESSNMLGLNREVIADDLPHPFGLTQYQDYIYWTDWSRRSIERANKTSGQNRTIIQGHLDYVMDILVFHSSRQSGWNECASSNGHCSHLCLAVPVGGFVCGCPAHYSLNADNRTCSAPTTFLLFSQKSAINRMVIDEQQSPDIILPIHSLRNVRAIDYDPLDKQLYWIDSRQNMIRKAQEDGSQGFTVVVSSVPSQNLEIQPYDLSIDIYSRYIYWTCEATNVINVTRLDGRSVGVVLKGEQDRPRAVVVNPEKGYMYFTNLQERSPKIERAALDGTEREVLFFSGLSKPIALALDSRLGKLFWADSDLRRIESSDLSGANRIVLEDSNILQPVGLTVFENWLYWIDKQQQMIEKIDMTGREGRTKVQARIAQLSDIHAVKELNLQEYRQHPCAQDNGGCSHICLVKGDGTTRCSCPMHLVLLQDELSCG

[8] = target: T4, human LRP6 β-propeller-EGF modules P3E3P4E4 (human, UniProt O75581 639-1244); test: ITC
T4 chain: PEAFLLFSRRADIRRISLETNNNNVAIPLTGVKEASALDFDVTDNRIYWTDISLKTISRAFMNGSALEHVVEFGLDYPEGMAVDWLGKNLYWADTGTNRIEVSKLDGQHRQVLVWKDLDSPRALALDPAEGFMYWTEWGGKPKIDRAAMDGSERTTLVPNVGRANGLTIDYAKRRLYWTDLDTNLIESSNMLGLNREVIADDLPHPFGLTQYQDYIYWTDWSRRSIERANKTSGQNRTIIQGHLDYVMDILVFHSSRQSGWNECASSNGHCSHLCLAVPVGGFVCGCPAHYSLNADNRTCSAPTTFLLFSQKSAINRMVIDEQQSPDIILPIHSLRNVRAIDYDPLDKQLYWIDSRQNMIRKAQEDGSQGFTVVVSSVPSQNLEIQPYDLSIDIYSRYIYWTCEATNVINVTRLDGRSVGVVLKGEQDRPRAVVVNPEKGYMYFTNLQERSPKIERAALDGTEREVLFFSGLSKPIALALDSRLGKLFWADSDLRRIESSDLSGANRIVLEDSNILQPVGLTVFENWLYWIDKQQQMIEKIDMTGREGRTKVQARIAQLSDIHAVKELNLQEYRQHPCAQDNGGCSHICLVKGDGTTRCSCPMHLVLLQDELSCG

Sequence of LRP6 P3E3P4E4 (Homo sapiens) (O75581 631-1246): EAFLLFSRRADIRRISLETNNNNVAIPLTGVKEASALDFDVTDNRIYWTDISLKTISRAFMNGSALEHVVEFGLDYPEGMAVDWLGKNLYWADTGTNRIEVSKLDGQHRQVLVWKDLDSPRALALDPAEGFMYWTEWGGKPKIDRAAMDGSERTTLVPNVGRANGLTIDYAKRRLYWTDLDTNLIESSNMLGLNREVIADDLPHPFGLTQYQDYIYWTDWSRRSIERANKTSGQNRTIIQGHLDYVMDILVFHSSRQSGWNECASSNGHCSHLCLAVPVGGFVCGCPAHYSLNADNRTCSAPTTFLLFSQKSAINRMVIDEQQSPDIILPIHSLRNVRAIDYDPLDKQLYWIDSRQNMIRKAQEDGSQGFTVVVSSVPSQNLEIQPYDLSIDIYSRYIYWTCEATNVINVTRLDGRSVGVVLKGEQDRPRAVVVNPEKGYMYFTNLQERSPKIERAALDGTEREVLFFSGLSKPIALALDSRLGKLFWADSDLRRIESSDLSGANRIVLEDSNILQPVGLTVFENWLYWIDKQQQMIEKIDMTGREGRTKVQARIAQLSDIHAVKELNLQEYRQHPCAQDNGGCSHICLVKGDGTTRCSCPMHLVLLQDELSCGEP
Sequence of LRP6 P1E1P2E2 (Homo sapiens) (O75581 20-630): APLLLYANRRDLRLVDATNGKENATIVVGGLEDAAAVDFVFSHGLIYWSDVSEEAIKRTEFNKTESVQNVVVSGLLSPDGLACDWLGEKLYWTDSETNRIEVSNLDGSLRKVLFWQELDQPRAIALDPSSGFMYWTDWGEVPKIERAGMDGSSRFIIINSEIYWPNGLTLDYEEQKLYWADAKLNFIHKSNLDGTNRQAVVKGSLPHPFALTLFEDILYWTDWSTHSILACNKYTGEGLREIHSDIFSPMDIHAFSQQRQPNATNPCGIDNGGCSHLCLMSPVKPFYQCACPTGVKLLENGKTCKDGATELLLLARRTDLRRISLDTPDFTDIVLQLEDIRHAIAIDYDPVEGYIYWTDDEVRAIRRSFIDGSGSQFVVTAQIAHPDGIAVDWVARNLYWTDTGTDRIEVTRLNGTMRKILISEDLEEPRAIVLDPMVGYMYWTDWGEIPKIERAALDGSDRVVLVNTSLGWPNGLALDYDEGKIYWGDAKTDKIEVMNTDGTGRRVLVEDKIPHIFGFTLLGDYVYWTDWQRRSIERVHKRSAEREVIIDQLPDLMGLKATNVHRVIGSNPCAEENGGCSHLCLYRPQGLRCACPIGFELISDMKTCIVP

Molecule: DKK1 DKK1_C (from UniProt O94907)
- Kd [1]: 70 nM
- Kd [2]: 70 nM

- Kd [3]: 0.4 nM
- koff [3]: 0.00015 s⁻¹
- kon [3]: 370000 M⁻¹ s⁻¹
B1: anti-LRP6 VHH L-P2-D07, C-terminal V5-FLAG3-His6-tagged (VHH)
VHH: EVQLQESGGGLVQAGGSLRLSCAASGRTFSIYTIGWFRQAPGKEREFVAEITWSGGSTYYADSVKGRFTISRDNAKNTVYLQMNSLKPEDTAVYYCAAITYTRGIYKYWGQGTQVTVSS
notes: also in the deposited structure of the complex with LRP6 P3E3P4E4; Selected by CIS display from a fully synthetic VHH library; also called L-P2-D07-V5-Flag3-His6; source: E. coli BL21 Gold, purified (IMAC, SEC Superdex 75); not shown: V5, C-terminal, kept; FLAG3, C-terminal, kept; His6, C-terminal, kept

- Kd [4]: < 40 nM
- stoichiometry N [4]: 1
- koff [5]: ~0.0001 s⁻¹
- kon [5]: ~100000 M⁻¹ s⁻¹
- IC50 of inhibition of cellular responses to Wnt3a (Wnt luciferase reporter, HEK293T); blocks Wnt3a with LRP6 [6]: 94 nM
- IC50 of inhibition of cellular responses to the combination of Wnt3a and R-spondin1 (Wnt luciferase reporter, HEK293T); blocks Wnt3a with LRP6 [6]: 40 nM
B2: anti-LRP6 VHH L-P2-D07 with C-terminal V5-FLAG3-His6-tag (VHH)
VHH: EVQLQESGGGLVQAGGSLRLSCAASGRTFSIYTIGWFRQAPGKEREFVAEITWSGGSTYYADSVKGRFTISRDNAKNTVYLQMNSLKPEDTAVYYCAAITYTRGIYKYWGQGTQVTVSS
notes: Selected by CIS display from a fully synthetic VHH library; also called anti-LRP6^P3E3P4E4 VHH; anti-LRP5/6^P3 VHH; source: E. coli BL21 (BL21-Gold), purified (IMAC, SEC Superdex 75); not shown: V5, C-terminal, kept; FLAG3, C-terminal, kept; His6, C-terminal, kept

- Kd [7]: 30.3 nM and 35.7 nM and 29.4 nM
- stoichiometry N [7]: 0.921 and 0.893 and 0.881
B3: anti-LRP6 VHH L-P2-D07 (VHH)
VHH: EVQLQESGGGLVQAGGSLRLSCAASGRTFSIYTIGWFRQAPGKEREFVAEITWSGGSTYYADSVKGRFTISRDNAKNTVYLQMNSLKPEDTAVYYCAAITYTRGIYKYWGQGTQVTVSS
notes: they are in the deposited structure of its complex with LRP6 P3E3P4E4 (PDB 6H15 or 6H16); Selected by CIS display from a fully synthetic VHH library; source: E. coli BL21, purified (IMAC, SEC); not shown: V5, C-terminal, kept; FLAG3, C-terminal, kept; His6, C-terminal, kept

- Kd [4]: < 40 nM
- stoichiometry N [4]: 1
- koff [5]: ~0.0001 s⁻¹
- kon [5]: ~100000 M⁻¹ s⁻¹
- IC50 of inhibition of cellular responses to Wnt3a (Wnt luciferase reporter, HEK293T); blocks Wnt3a with LRP6 [6]: 82 nM
- IC50 of inhibition of cellular responses to the combination of Wnt3a and R-spondin1 (Wnt luciferase reporter, HEK293T); blocks Wnt3a with LRP6 [6]: 40 nM
- Kd [8]: 12.8 nM
B4: anti-LRP6 VHH L-P2-B10 with C-terminal V5-FLAG3-His6-tag (VHH)
VHH: EVQLQESGGCLVQAGGSLRLSCAASGSTFSTYTIGWFRQAPGKEREFVAAIHWDGGQTYYADSVKGRFTISRDNAKNTVYLQMNSLKPEDTAVYYCAARGRRYFDFTYSDVYDYWGQGTQVTVSS
notes: as for B2

- Kd [7]: 14.5 nM and 11.9 nM and 12.2 nM
- stoichiometry N [7]: 1.09 and 1.08 and 1.15
B5: anti-LRP6 VHH L-P2-B10 (VHH)
VHH: EVQLQESGGCLVQAGGSLRLSCAASGSTFSTYTIGWFRQAPGKEREFVAAIHWDGGQTYYADSVKGRFTISRDNAKNTVYLQMNSLKPEDTAVYYCAARGRRYFDFTYSDVYDYWGQGTQVTVSS
notes: as for B3

- Kd [3]: 0.8 nM
- koff [3]: 0.00014 s⁻¹
- kon [3]: 180000 M⁻¹ s⁻¹
B6: anti-LRP6 VHH L-P2-B10, C-terminal V5-FLAG3-His6-tagged (VHH)
VHH: EVQLQESGGCLVQAGGSLRLSCAASGSTFSTYTIGWFRQAPGKEREFVAAIHWDGGQTYYADSVKGRFTISRDNAKNTVYLQMNSLKPEDTAVYYCAARGRRYFDFTYSDVYDYWGQGTQVTVSS
notes: also in the deposited structure of the complex with LRP6 P3E3P4E4; Selected by CIS display from a fully synthetic VHH library; source: E. coli BL21 Gold, purified (IMAC, SEC Superdex 75); not shown: V5, C-terminal, kept; FLAG3, C-terminal, kept; His6, C-terminal, kept

- Kd [3]: 2.3 nM
- koff [3]: 0.00018 s⁻¹
- kon [3]: 81000 M⁻¹ s⁻¹
- Kd [8]: 17.5 nM
B7: anti-LRP6 VHH L-P2-H07, C-terminal V5-FLAG3-His6-tagged (VHH)
VHH: EVQLQESGGGLVQAGGSLRLSCAASGDIISSYRMGWFRQAPGKEREFVSDITPSIGHTYYADSVKGRFTISRDNAKNTVYLQMNSLKPEDTAVYYCRAVDRSYRYPYEYWGQGTQVTVSS
notes: Selected by CIS display from a fully synthetic VHH library; No structure of its complex was deposited; source: E. coli BL21 Gold, purified (IMAC, SEC Superdex 75); not shown: V5, C-terminal, kept; FLAG3, C-terminal, kept; His6, C-terminal, kept

Reference: article PMC6341108, “Anti-LRP5/6 VHHs promote differentiation of Wnt-hypersensitive intestinal stem cells” (Nature Communications, 2019)
